Experimental findings from patent publication US20110091477A1 (Genentech, published 2011) are described below.

Numbering of substitutions follows the chain as printed.

For experiment [1], the target named is T1, HGFA (Val373-Ser655) (human, UniProt Q04756 373-655).
T1 construct: a tag is not described; also called human HGFA
T1 sequence: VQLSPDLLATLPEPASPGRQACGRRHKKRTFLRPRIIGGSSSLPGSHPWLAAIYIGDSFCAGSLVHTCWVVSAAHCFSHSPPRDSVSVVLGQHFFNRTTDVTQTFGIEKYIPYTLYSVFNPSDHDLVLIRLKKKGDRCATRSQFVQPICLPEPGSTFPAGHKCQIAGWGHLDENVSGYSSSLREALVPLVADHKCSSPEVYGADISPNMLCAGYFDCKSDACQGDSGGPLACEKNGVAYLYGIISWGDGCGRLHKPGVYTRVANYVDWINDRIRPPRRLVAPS
As to the kind of experiment: SPR (BIAcore 3000), IgG captured on anti-human IgG, HGFA injected, 25 C. The text has this:
(§1) Antibody reformatting and determination of dissociation rate constants to HGFA: Anti-HGFA Fabs were reformatted into human IgG1 by cloning the VL and VH regions of individual clones into LPG3 and LPG4 vector, respectively (Liang et al, 2007). The full-length antibodies were transiently expressed in Chinese Hamster Ovary cells and purified on a protein-A column. To determine binding affinities of the reformatted anti-HGFA antibodies, surface plasmon resonance measurements on a BIAcore™-3000 instrument (GE Health Care, NJ) were performed. Rabbit anti-human IgG were chemically immobilized (amine coupling) on CM5 biosensor chips and the anti-HGFA antibodies were captured to give approximately 250 response units (RU). For kinetics measurements, two-fold serial dilutions of HGFA or active site-blocked HGFA (0.9 nM to 250 nM) were injected in PBT buffer at 25° C. with a flow rate of 30 μl/min. HGFA-KQLR (“KQLR” disclosed as SEQ ID NO: 10) was produced by incubating HGFA with two fold molar excess of Ac-KQLR-cmk (“KQLR” disclosed as SEQ ID NO: 10) for 2 hours at room temperature, followed by size exclusion chromatography to remove non-incorporated Ac-KQLR-cmk (“KQLR” disclosed as SEQ ID NO: 10). Association rates (kₒₙ) and dissociation rates (koff) were obtained by using a simple one-to-one Langmuir binding model (BIAEvaluation) and the equilibrium dissociation constants (KD) were calculated (koff/kₒₙ). Longer injection (5 min) of 2-fold serial dilution of HGFA or HGFA-KQLR (“KQLR” disclosed as SEQ ID NO: 10) (1.5 nM to 3000 nM) over captured antibody (Ab40.ΔTrp) sensor chip was implemented to achieve maximal binding (Rₘₐₓ) and reach the steady state.

The next experiment has as its target T2, matriptase (UniProt Q9Y5Y6 615-855, limits assumed).
T2 sequence (looked up): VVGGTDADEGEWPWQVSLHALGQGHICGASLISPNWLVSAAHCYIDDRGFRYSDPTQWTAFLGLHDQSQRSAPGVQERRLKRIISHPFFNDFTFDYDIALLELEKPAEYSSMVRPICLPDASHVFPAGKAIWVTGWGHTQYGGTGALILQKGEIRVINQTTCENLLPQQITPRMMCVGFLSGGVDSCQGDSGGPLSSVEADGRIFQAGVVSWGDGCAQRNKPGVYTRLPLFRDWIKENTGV
The experiment in a line: direct binding ELISA on coated matriptase, anti-human antibody HRP conjugate, OD 450 nm. As for the experimental part:
(§2) FIG. 9: (a) Antibody specificity. In a direct binding ELISA, 96-well plates were coated with […] of HGFA, matriptase (Kirchhofer et al. (2003) J Biol Chem 278:36341-36349), urokinase (American Diagnostica), or factor XIIa (American Diagnostica) and incubated with […] of anti-HGFA antibodies in PBS, 0.05% (v/v) Tween-20 (PBT) buffer. After washing, bound antibodies were detected by addition of anti-human antibody HRP conjugate (diluted 1:2,500 in PBT buffer) and TMB substrate. Absorbance at 450 nm was measured on a microplate reader.
(§3) Competition HGFA binding ELISA experiments: For binding specificity measurements, 96-well Maxisorp plates were coated with 2 μg/ml of HGFA, matriptase, urokinase-type plasminogen activator or factor XIIa and incubated with 10 μg/ml of anti-HGFA IgG in PBST buffer for at least 1 hour at room temperature. The plates were washed with PBT buffer and bound antibodies were detected with anti-human antibody HRP conjugate diluted 1:2500 in PBST buffer, developed with TMB substrate for approximately 5 minutes, quenched with 1 M H₃PO₄, and absorbance was measured on a microplate reader at 450 nm.
In general terms: An ELISA detects its analyte on a solid surface through an enzyme-linked reagent.

The target in a further experiment is T3, factor XIIa (UniProt P00748 20-615, limits assumed).
T3 construct: also called FXIIa; coagulation factor XIIa
T3 sequence (looked up): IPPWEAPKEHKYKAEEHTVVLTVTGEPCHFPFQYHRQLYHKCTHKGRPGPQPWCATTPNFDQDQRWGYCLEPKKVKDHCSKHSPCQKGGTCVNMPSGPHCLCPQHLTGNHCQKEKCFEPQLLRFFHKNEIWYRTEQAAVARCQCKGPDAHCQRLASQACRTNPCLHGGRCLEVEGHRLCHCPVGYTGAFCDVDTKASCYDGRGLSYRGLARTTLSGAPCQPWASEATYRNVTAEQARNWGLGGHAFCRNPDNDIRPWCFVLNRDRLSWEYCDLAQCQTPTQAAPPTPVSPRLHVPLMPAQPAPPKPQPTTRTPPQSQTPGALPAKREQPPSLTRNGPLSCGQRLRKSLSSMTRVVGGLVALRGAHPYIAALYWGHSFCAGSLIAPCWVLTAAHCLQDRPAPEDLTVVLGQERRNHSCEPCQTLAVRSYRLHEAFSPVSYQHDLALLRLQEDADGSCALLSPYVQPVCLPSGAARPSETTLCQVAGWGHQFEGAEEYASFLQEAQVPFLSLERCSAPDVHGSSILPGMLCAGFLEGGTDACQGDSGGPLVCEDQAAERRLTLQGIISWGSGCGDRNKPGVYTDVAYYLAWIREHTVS
As to the kind of experiment: direct binding ELISA on coated factor XIIa, anti-human antibody HRP conjugate, OD 450 nm. As for the experimental part: as §2, §3

For experiment [2], the target named is urokinase-type plasminogen activator (UniProt P00749 21-431, limits assumed). The experiment in a line: direct binding ELISA on coated urokinase, anti-human antibody HRP conjugate, OD 450 nm. As to the method: as §2, §3
The target in experiment [3] is T4, HGFA-KQLR complex (human, UniProt Q04756 373-655, N-terminal acetyl; C-terminal chloromethyl ketone, reacted with Ser195 and His57 of HGFA; active-site Ser195 and His57 (chymotrypsinogen numbering) covalently linked to Ac-KQLR-cmk). As to the kind of experiment: SPR (BIAcore 3000), steady state affinity, IgG captured, HGFA-KQLR complex injected. An excerpt:
(§4) Antibody reformatting and determination of dissociation rate constants to HGFA: Anti-HGFA Fabs were reformatted into human IgG1 by cloning the VL and VH regions of individual clones into LPG3 and LPG4 vector, respectively (Liang et al, 2007). The full-length antibodies were transiently expressed in Chinese Hamster Ovary cells and purified on a protein-A column. To determine binding affinities of the reformatted anti-HGFA antibodies, surface plasmon resonance measurements on a BIAcore™-3000 instrument (GE Health Care, NJ) were performed. Rabbit anti-human IgG were chemically immobilized (amine coupling) on CM5 biosensor chips and the anti-HGFA antibodies were captured to give approximately 250 response units (RU). For kinetics measurements, two-fold serial dilutions of HGFA or active site-blocked HGFA (0.9 nM to 250 nM) were injected in PBT buffer at 25° C. with a flow rate of 30 μl/min. […] Association rates (kₒₙ) and dissociation rates (koff) were obtained by using a simple one-to-one Langmuir binding model (BIAEvaluation) and the equilibrium dissociation constants (KD) were calculated (koff/kₒₙ). […]
A general note: SPR reads the build-up and loss of mass on a sensor chip optically.

The target of experiment [4] is T1, HGFA (Val373-Ser655). As to the kind of experiment: SPR (BIAcore 3000), steady state affinity, IgG captured, HGFA injected.
Description: as §4

For experiment [5], the target named is T1, HGFA (Val373-Ser655). As to the kind of experiment: SPR.
Description: as §4

For experiment [6], the target named is T4, HGFA-KQLR complex. The experiment in a line: SPR.
Description: as §4

For experiment [7], the target named is T4, HGFA-KQLR complex. As to the kind of experiment: SPR (BIAcore 3000), IgG captured on anti-human IgG, HGFA-KQLR complex injected, 25 C.
Description: as §1

Experiment [8] has as its target T1, HGFA (Val373-Ser655). The experiment in a line: competition ELISA: coated HGFA incubated with increasing Ab40, then 1 nM biotinylated KD1, detected with streptavidin-HRP; blocked ligand KD1; inhibition partial. An excerpt: FIG. 3: Effects of active site inhibitors on antibody binding to HGFA. (a-b, e-f) Surface plasmon resonance (BIAcore) measurements of binding to immobilized antibodies, Ab40 (a-b) or Ab40.ΔTrp (e-f), after co-injection of HGFA (a,e) or HGFA-KQLR (b, f) complex (“KQLR” disclosed as SEQ ID NO: 10). (c) Competition binding (BIAcore) of HGFA to immobilized Ab40 in presence of different concentrations of KD1. (d) Competition binding ELISA measuring binding of HGFA to biotinylated KD1 in the presence of increasing antibody concentrations.
HGFA purification, enzymatic kinetic assays and competition ELISA: HGFA (Val373-Ser655) was produced by use of a baculovirus—insect cell expression system and purified on a Ni-NTA-agarose column, followed by size exclusion chromatography as described (Kirchhofer et al, 2003). […] After addition of S-2266 (0.24 mM˜Kₘ) the linear rates of the increase in absorbance at 405 nm were measured on a kinetic microplate reader (Spectramax-M5, Molecular devices, Sunnyvale, Calif.). […] Various concentrations of Chromogenix S-2266 were added and the linear rates of absorbance increase at 405 nm were measured. […] Biotinylated KD1 that was bound to HGFA was detected by streptavidin-HRP conjugates.

The Kd is the free concentration of one partner at which half of the binding sites on the other are occupied at equilibrium, for simple one-to-one binding. For orientation: koff means the first-order rate constant of dissociation. Higher therefore signals a short-lived complex. The kon is the second-order rate constant of association. Low values mean slow association, high ones fast association.

B1: Ab39 (antibody, V domains shown)
VH: EVQLVESGGGLVQPGGSLRLSCAASGFTFNGTYIHWVRQAPGKGLEWVGGIYPAGGATYYADSVKGRFTISRDNSKNTLYLQMNSLRAEDTAVYYCAKWWAWPAFDYWGQGTLVTVSS
VL: DIQMTQSPSSLSASVGDRVTITCRASQDVSTAVAWYQQKPGKAPKLLIYSASFLYSGVPSRFSGSGSGTDFTLTISSLQPEDFATYYCQQSYTTPPTFGQGTKVEIKR
notes: also called parental Ab39; anti-HGFA antibody Ab39
For B1, in the experiment with HGFA (Val373-Ser655) [1], the dissociation constant (Kd) was 10.3 nM, the koff stood at 0.0053 s⁻¹ and the association rate constant (kon) was 520000 M⁻¹ s⁻¹. For the same molecule, the binding result with matriptase is on record as “no binding”. Also, in the experiment with factor XIIa, the binding result is given as “no binding”. Besides, in experiment [2], the binding result is “no binding”.

B2: Ab40.ΔTrp (antibody, V domains shown)
VH: EVQLVESGGGLVQPGGSLRLSCAASGFTFNGTYIHWVRQAPGKGLEWVGGIYPAGGATYYADSVKGRFTISRDNSKNTLYLQMNSLRAEDTAVYYCAKWAWPAFDYWGQGTLVTVSS
VL: B1 VL with Y92N, T93R, T94A, P96A
notes: also called Trp96H-deletion mutant of Ab40
B2: the Kd was 161 nM in the experiment with HGFA-KQLR complex [3] and 150 nM in the experiment with HGFA (Val373-Ser655) [4].

B3: Ab40 (antibody, V domains shown)
VH: B1 VH
VL: B1 VL with Y92N, T93R, T94A, P96A
notes: also called anti-HGFA antibody Ab40
On to B3, for which the Kd with HGFA (Val373-Ser655) [1] came to 0.16 nM; with HGFA-KQLR complex [7] it was 1.35 nM. Also, the off-rate constant (koff) was found to be 0.000175 s⁻¹ in the experiment with HGFA (Val373-Ser655) [1] and 0.00043 s⁻¹ in the experiment with HGFA-KQLR complex [7]. Moreover, the kon in the experiment with HGFA (Val373-Ser655) [1] was 1.08e+06 M⁻¹ s⁻¹; in the experiment with HGFA-KQLR complex [7], 320000 M⁻¹ s⁻¹. For the same molecule, the “fold improvement in binding affinity over Ab39” value with HGFA (Val373-Ser655) [5] is 64 fold. The “fold decrease in affinity compared to HGFA” value with HGFA-KQLR complex [6] was 8 fold. For the same molecule, the binding result (with matriptase; with factor XIIa; in experiment [2]) was “no binding” in each case. Besides, in the experiment with HGFA (Val373-Ser655) [8], the “IC50 (read off the curve)” value is approximately 1 nM.
